Laboratory results as given in patent US20170267766A1.

Key:
[1] = target: rmIGF-1R protein (R&D Systems, cat No 6630-GR/Fc) (murine) (UniProt Q60751); assay: ELISA, coated rm IGF-1R, 5 ug/ml
[2] = target: rhIGF-1R protein (R&D Systems, Cat No 391-GR) (human) (UniProt P08069); assay: ELISA, coated rh IGF-1R, 5 ug/ml
[3] = target: rhIR protein (R&D Systems, cat No 1544-IR/CF) (human) (UniProt P06213); assay: ELISA, coated rh Insulin R, 5 ug/ml
Chain of rhIR protein (R&D Systems, cat No 1544-IR/CF) (human) (P06213 other isoform, or with tags, fused parts or gaps limits assumed): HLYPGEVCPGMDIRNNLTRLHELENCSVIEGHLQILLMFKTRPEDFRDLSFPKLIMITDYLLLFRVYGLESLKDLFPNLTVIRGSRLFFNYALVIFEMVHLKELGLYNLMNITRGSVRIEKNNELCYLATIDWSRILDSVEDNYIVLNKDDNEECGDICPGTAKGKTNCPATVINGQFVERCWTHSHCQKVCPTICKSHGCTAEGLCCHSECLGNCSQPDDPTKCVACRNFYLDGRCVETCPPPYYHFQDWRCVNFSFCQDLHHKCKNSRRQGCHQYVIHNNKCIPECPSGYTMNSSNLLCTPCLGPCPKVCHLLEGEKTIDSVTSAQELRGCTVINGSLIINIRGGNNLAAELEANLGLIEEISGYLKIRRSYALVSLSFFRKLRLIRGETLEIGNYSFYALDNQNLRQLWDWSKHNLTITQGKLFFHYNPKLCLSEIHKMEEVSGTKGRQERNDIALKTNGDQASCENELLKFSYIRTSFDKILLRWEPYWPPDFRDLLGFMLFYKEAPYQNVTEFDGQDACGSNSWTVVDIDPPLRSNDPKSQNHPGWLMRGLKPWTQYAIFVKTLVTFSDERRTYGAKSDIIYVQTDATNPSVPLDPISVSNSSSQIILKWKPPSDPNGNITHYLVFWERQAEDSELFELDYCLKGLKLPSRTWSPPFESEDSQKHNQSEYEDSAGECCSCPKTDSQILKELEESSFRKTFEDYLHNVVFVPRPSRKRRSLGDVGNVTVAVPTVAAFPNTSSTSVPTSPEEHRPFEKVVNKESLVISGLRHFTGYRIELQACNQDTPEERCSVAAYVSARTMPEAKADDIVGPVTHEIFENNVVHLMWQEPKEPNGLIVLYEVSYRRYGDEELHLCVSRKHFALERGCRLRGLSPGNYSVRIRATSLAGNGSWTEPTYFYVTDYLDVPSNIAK

Chain of rmIGF-1R protein (R&D Systems, cat No 6630-GR/Fc) (murine) (Q60751 31-936): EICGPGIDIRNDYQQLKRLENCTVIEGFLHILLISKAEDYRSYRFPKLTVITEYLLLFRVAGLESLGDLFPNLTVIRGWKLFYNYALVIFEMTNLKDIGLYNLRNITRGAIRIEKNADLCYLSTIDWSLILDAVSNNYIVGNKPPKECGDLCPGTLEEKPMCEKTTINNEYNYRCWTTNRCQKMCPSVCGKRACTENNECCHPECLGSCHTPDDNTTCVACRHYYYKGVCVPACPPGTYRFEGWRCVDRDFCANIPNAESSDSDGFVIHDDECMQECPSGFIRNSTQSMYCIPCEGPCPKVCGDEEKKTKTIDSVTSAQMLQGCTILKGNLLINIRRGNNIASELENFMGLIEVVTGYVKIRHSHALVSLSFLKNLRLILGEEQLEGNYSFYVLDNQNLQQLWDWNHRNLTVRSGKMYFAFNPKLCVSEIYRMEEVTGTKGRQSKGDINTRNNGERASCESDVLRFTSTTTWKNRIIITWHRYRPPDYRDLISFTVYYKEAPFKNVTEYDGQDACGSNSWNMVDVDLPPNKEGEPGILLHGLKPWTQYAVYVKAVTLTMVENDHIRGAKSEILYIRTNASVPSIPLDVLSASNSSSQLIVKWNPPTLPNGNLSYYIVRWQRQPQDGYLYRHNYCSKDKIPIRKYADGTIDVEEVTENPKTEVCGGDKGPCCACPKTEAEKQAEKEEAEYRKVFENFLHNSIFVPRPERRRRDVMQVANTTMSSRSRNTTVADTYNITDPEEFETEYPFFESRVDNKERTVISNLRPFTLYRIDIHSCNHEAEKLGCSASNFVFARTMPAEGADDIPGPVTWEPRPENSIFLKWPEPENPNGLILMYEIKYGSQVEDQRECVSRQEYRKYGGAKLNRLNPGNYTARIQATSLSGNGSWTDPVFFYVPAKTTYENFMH

Substance: mIgG1 (antibody)
- D.O 450 nm [1]: 0.116 D.O 450 nm
- D.O 450 nm [2]: 0.093 D.O 450 nm
- D.O 450 nm [3]: 0.127 D.O 450 nm
